Consider one molecule from patent publication US8487082B2, “Synthetic scFv analogue to the 6313/G2 (anti angiotensin II type 1 receptor) monoclonal antibody variable regions” (Queen Mary & Westfield College, priority 2008, dated 2013).

For data set [1], the system named is T47D cells. Nature of the data set: In vivo hollow fiber assay. More on the design: species or system balb/c nu/nu mice. The conditions noted are these: i.p. site, 0.7 mg/kg (25 nmol/kg) twice per day. On the procedure:
(§1) Hollow Fiber procedures followed the method of Hollingshead. (Hollingshead et al Life Sci 57 131-41 (1995)).
(§2) Polyvinylidene difluoride (PVDF) hollow fibers (500 kDa cut-off, 1 mm inner diameter; Spectrum Europe B.V., Breda, Netherlands) were flushed through with 70% ethanol using a blunt 21 gauge needle and 10 ml syringe. Fibers were then immersed in 70% ethanol for 72 hours, flushed through again with 70% ethanol, then distilled water, and then autoclaved at 131° C. Finally, before loading cell suspensions, fibers were flushed through with RPMI 1640 culture medium. Cells (MCF-7, T47D, and MDA-MB-231) were introduced into fibers at densities of 2.5 to 3.0×10^6 cells/ml. Fibers were then heat-sealed at 2 cm intervals and placed in Petri dishes containing 3 ml of the cell appropriate medium.
(§3) Cell-loaded hollow fiber segments were incubated at 37° C. in culture medium overnight before implantation into pure strain 5-6 week old female balb/c nu/nu mice. Fibers were implanted into the animals under anaesthesia (2% Isofluorane). Three 2 cm fibers, each containing one of the cell lines MCF-7, T47D, or MDA-MB-231, were implanted at both subcutaneous (s.c.) and intraperitoneal (i.p.) sites into each animal. For i.p. implants, a small incision was made through the skin and musculature of the ventral abdominal wall. Fibers were placed into the peritoneal cavity and both incisions were closed with metallic suture clips (Harvard Instruments, Edenbridge UK). For s.c. implants, a small incision was made dorsally. The fibers were implanted to the left of the dorsal midline in a cranial direction. The small incision was closed with metallic suture clips.
(§4) Mice (n=5/group) with hollow fiber implants were treated with R6313/G2 (0.07 mg/kg (2.5 nmol/kg), and 0.7 mg/kg (25 nmol/kg) in 0.1 ml PBS, subcutaneously) twice per day for six days. Control animals (n=5) received vehicle alone. 24 hours after the last injection, animals were killed by cervical dislocation and the fibers were recovered and transferred to pre-warmed RPMI 1640 medium containing 20% FBS for 30 minutes.
(§5) Cell viability was measured using a modified MTT assay. Fibers were incubated in RPMI 1640 with 20% FBS containing 1 mg/ml MTT, and incubated at 37° C. under […], 5% CO2 for 4 hours. The reagent was aspirated, and 2 ml sterile filtered 2.5% protamine sulphate (0.9 g NaCl, 2.5 g protamine sulphate in 100 ml water) was added. Specimens were stored at 4° C. for a minimum of 24 hours in the dark to fix the formazan product. Fresh protamine sulphate (2.5%) was added and fibers were stored for a further 2 to 4 hours at 4° C. Each fiber was transferred to a well in a 24 well plate, cut in half and air-dried overnight, protected from light. Dimethyl sulphoxide (DMSO) (300 μl) was added to each well and the formazan product extracted. An aliquot (190 μl) from each well was transferred to a 96 well plate and absorbance read at 540 nm using a Multiskan Ascent photometric microplate reader (Thermo labsystem). Treated values were calculated as a percentage of the controls.

The subject of a further data set is MDA-MB-231 cells. The data set is described as follows: In vivo hollow fiber assay. More on the design: species or system balb/c nu/nu mice. On the procedure: as §1, §2, §3, §4, §5
Data set [2] concerns MCF-7 cells. Nature of the data set: In vivo hollow fiber assay. The arrangement: species or system balb/c nu/nu mice. On the procedure: as §1, §2, §3, §4, §5
The nature of data set [3]: Body weight and mortality in xenograft assay. In kind it is in vivo, mice. The conditions noted are these: for body weight: MCF7 xenograft mice. On the procedure: Mice were injected s.c. on the right-flank, with 150 μl sterile PBS containing 7.5×10^6 MCF-7 cells. Tumour cells were allowed to grow for 4 weeks without hormone support, thereafter mice received weekly s.c. injections of 17β-oestradiol valerate (0.1 mg/Kg body weight), in sesame oil (Kasukabe et al., Breast Cancer Res. 7(6) R1097-110 (2005)) for a further 8 weeks. Animals were monitored daily for general health, and body weights were measured twice-weekly. Tumour size was measured 3 times per week with slide callipers, and volumes were calculated as (L×W^2)/2, where L and W are the major and minor diameters, respectively. Once tumour volumes reached 150 to 200 mm^3, mice were randomized to treatment and control groups of 8 to 10 per group. Mice were treated by subcutaneous injections of R6313/G2 in sterile PBS (0.1 ml) at doses of 0.4 mg/kg (13 nmol/kg), 0.8 mg/kg (27 nmol/Kg), and 1.36 mg/kg (45.3 nmol/kg) body weight, twice per day for seven days. Control mice received sterile PBS. At the termination of the study, animals were sacrificed by cervical dislocation. Relative body weights (%) were calculated as (Wt/Wi)×100, where Wt is the body weight at any given time and Wi is the body weight at treatment initiation. Net tumour volume was calculated as Vt-Vi, where Vt is the tumour volume at any given time and Vi is the tumour volume at the start of treatment, and expressed as a percentage of Vi.

The test system of data set [4] is T47D cells. The data set is described as follows: Cell viability assay (XTT). The conditions noted are these: 100 nmol angiotensin II per L, XTT, 48 hours. Format: cell-based. On the procedure:
(§6) MCF-7, T47D and MDA-MB-231 breast cancer cells were obtained from The American Tissue Culture Collection (LGC Promochem, Teddington, UK). Rat aortic smooth muscle cells (RASMC) were developed from primary culture (Barker et al., 1996). MCF-7 cells were maintained in Minimal Essential Medium (MEM), T47D and MDA-MB-231 cells in RPMI 1640 medium, and RASMC were maintained in Dulbecco's Modified Eagle's Medium (DMEM). All media were supplemented with 2 mM L-glutamine, 10% fetal bovine serum (FBS), 50 U/ml penicillin and 0.05 mg/ml streptomycin. Cells were maintained at 37° C. in a humidified atmosphere ([…], 5% CO2).
(§7) Confluent cell monolayers were removed from tissue culture flasks using trypsin/EDTA. Cells (15×10^3 per well) were seeded into 96 well tissue culture plates containing the appropriate medium for each cell line. […] Cell viability was assessed by the ability of metabolically active cells to reduce 2,3-bis[2-Methoxy-4-nitro-5-sulphophenyl]-2H-tetrazolium-5-carboxyanilide inner salt (XTT) to the coloured formazan product. Absorbance was measured using a Multiskan Ascent microplate reader (Thermo Labsystem, Helsinki, Finland) at a wavelength of 450 nm and a reference wavelength of 630 nm. Each measurement was performed in triplicate. IC50s were calculated using a non-linear regression formula using GraphPad Prism v4.0 software (GraphPad Software Inc, San Diego Calif., USA).
(In general: Formazan colour is commonly taken as a measure of viable cells.)

Data set [5] deals with MCF-7 cells. The data set is described as follows: Cell viability assay (XTT). Format: cell-based. The conditions noted are these: MCF-7, 100 nmol angiotensin II per L, XTT, 48 hours. On the procedure:
as §6, §7

One may read the IC50 as the concentration that inhibits the measured activity by half.

B1: R6313/G2: murine scFv analogue of the 6313/G2 anti-AT1 receptor monoclonal antibody variable domains, SEQ ID NO:15 (protein)
scFv: YAAQPAMAQVKLQQSGPELEKPGASVKISCKASGYSFTGYNMNWVKQSNGKSLEWIGNIDPYYGGTTYNQKFKGKATLTVDKSSSTAYMQLKSLTSEDSAVYYCAREVDYWGQGTTVTVSSGGGGSGGGGSGGGGSDIELTQSPASLAVSLGQRATISYRASKSVSTSGYSYMHWNQQKPGQPPRLLIYLVSNLESGVPARFSGSGSGTDFTLNIHPVEEEDAATYYCQHIRELTRSEGTKLEIKRAAAGAPVPY
modifications: 12D
Turning to B1, the “cell survival in hollow fibers in vivo” value in the data set with T47D cells [1] is given as “inhibited”; with MDA-MB-231 cells (MBA MB 231, i.p. site, 0.7 mg/kg (25 nmol/kg) twice per day) it was “inhibited”; in the data set with MDA-MB-231 cells (MDA MB 231, s.c. site, highest dose), “inhibited at the highest dose”; in the data set with MCF-7 cells [2] (MCF7, i.p. site, 0.07 and 0.7 mg/kg (2.5 and 25 nmol/kg) twice per day) it was “inhibited MCF7 cell survival”; with MCF-7 cells [2] (MCF-7, s.c. site), “dose dependently inhibited cell survival”. In addition, the “other effects in xenograft mice” value in data set [3] (13 nmol/kg) is given as “without other effects”. In addition, the mortality entry in data set [3] (0.4 mg/kg twice per day, during the treatment period) is recorded as “no mortality”; in data set [3] (0.8 mg/kg group, by day 8, n=8), “four died by day 8”; in data set [3] (0.8 mg/kg twice per day, during the treatment period), “no mortality”; in data set [3] (1.36 mg/kg group, by day 8), “all died by day 8”. For the same molecule, the body weight result in data set [3] (0.4 mg/kg (13 nmol/kg) twice per day) is given as “no weight loss”; in data set [3] (0.8 mg/kg (27 nmol/kg) twice per day), “no weight loss”; in data set [3] (1.36 mg/kg (45.3 nmol/kg) twice per day), “significantly reduced”. The “Threshold value for inhibition of cell survival (P<0.05 or better)” value is 1.25 µM in the data set on T47D cells [4] and 0.05 µM in the data set with MCF-7 cells [5]. Also, the IC50 with T47D cells [4] (read-out: IC50, inhibition of cell survival) was 2800 nM.
